This note sets out measurements from the DeepSol protein solubility set.

A short description of this data set: soluble on expression in E. coli; label from the status in PepcDB or PDB records.
Consider “MPLAVLERDGSFLGVLTPHSIVEVLLERERRLLEDARKINAEIRREADKAIEQLDIKAHYDTVTGLPNRQLFCDRLLQALAAHERDGNPVVLLFLDVDNFKSINDSLGHLVGDRLLRATAERIRTAVRDGDTVARIGGDEFTILLNGAKDTLNGALVAQKILDGLAQPFVFGAQQIVISVSIGIAVSPADGETMEQLLRNADTAMYHAKSRGKNNYQFFSPELNVQAYRRQEIERNLRCALLQGELGLRYAPRVDLRSGRIVALEVCPFWLSSELGDVPPDDFIPVAEETGLIVQIGIWAFRTACAHAAVWRTQGLADRCLSFRLSQRELDDPQFGDRIMSLLDGCGLEPENLQFELSERMLMTHAAHTLAVLQELSNRGIRFSVGDFGTGNASLRRLRRFPIDELKIDLSSVRDIEPDSDDAAVITAMIAMAKSLRMDVVAVGVETPEHVAFLLERGCRHGQGRLIGARLPPERIAALLAGDAVDLFVALEHHHHHH”, for which the “soluble on expression in E. coli” value is reported as “not soluble”.

As to “VSIDSSRRIIQAIEQNEFHLYCQKIIPAGSNQESSSYYEVLIRMAEEESNLIPPGAFLPFVEKYNLMPRLDSWVVEQVIHYLADQRADPRISFCINLARSTLIDPVFYDRVWKLLNAAGIEPQRICFEIETADVAANLLSAVQFVKKVQQSGCLVSLCSFNHDRGSFDLLKHIQADFLKIDGSLICNILRDAEDLKKVENIGKFARALKIRTIGELVETRNILEKLAKIGIDYAQGFIVGRPLPIEKIEYRADSMDDL”, the “soluble on expression in E. coli” value is reported as “not soluble”.

As for “MGSDKIHHHHHHMRHENRVAWTEGMFLRVQHFQQSDRWTERLVRSVARSLTPYPWGILEIGLDRSALAIGQFALSGLRGMLPDGTPFDAPEDTDLPAALELDESVKNAVIYLALPARQPGKADMAQTGTSAVNSVRLVASPYEAPDANVETDFLAPIDVGRLNLKLLKTGDDLAGYELLGLARVVEVRSDKAVLLDPDFIPASLNCTASSRLHELMTELLGIVRHRAEAIAERIGDPTIRGTAEVGDYFLLQILNRADPLLKHALSNATRLHPIQFYEQCIQLAGELATFTMESKRATDFPAYRHDDLKATFGAVFEDLRTSLSSVLAQSAVAIELVERRHGVRVGTINDRSLLRDAGFVLAVRADMSAEDVRRTLPARIKVGPVERIAELVNVALPGIPVRPLPVLPRQLPYRAGTIYFELDTKTPLWKQLETSGAIALHLAGDFPGLELEMWALRE”, the “soluble on expression in E. coli” value is “not soluble”.

Regarding “MGNKQTIFTEEQLDNYQDCTFFNKKDILKLHSRFYELAPNLVPMDYRKSPIVHVPMSLIIQMPELRENPFKERIVAAFSEDGEGNLTFNDFVDMFSVLCESAPRELKANYAFKIYDFNTDNFICKEDLELTLARLTKSELDEEEVVLVCDKVIEEADLDGDGKLGFADFEDMIAKAPDFLSTFHIRI”, the “soluble on expression in E. coli” value is listed as “not soluble”.

“MRGEAGELAVSSGEIATGALSPEKQQEQELMGKLAATGKLPARPASSFLQKKLQQRKFFDSGDYAMDKSKAGTGLGSKPHPLAGGPPPAAPPVVAQRSPAPAATTPSPSASPISQQTNRPSSDRNSDDDNLQIPRPDTVPQRKASIINPSVHCKLSPAPHVQHHDAASPNATSE”: the “soluble on expression in E. coli” value is on record as “soluble”.

Take “MTLYRQLLAREKENNPIRVGVIGAGQMGFGMISQIAAIPGMSVVGISDIHVDAAKKAADAYNATATKKEKILLSNDFKEIIHSDLVEVIVDATGVPEVGAKISLETLLAKKQLVLLNVEIDITIGPLMKKLYDSAGLVYTGSDGDEPAAITELYEFSKSMGMEVLVAGKGKNNKLKISANPDSCQVEADGKNMASHMLAAFQDGTKTMAEMNLLSNAIGYVPDVVGMHGISGDVDSVIKDLDLKEQGGILNQFGVVEYVDGLAPGVFVIVKGQNEGVSHELSYLMKKGERDHHILYRPYHLASLETPLTIAKAVLNHDHAIVPMGAPVSETVAVAKKDIAAGERLDGIGGFCVRGVLETHVDMAAEGHIPIGLISGEVVARRNIKAGTFITDEDVSLDESTTVWKLRKLQDETFSN”: the “soluble on expression in E. coli” value is “not soluble”.

Turning to “MTSNHAILFPGQGAQRADMGAPIFDIYTKLVAEAEEIAEFSIRDFFRDCPADRFSNTLYVQPALYTVNALYYRRYIDESGALPLFLAGHSLGEFNALHAAGVFDFETGLRLVKKRALLMSESQGGGMAAVLGLNAEEVVKILEENNLFDLTIANINSDLQMVISGPIESIKQAEEIFYDNYAIKYVVLRVSGAFHSTMLNTAAIKFSEYIQGFSFLPPQIPVIANRTACPYTLSSVIKNLSEHINRPVMWRQSVIYMRTHGVERFTEMGETSLLLDMVKNIL”, the “soluble on expression in E. coli” value is listed as “not soluble”.

On to “LSPLEARVIGCLIEKEVTTPDHYPLTLNSLTTACNQKSNREPVLNLSEAEVQDTVEGLIARRLVSDESSFNSRTSKYQHRFCNTEFGDLKLNQQELGLICCLLLRGAQTPGELRTRTNRLCTFTDVKETEAVLERLANRDSGALVVKLPREPGKRESRYHHLFCGEVDMAAFATSSDNE”, for which the “soluble on expression in E. coli” value is “not soluble”.

As to “MKKVLLFAVVFSCSMWANAQRVTWATEAGLSAIQRTGYGECWRPSTRLGISADYNVNNMFSMKSGLYYTFRGYSVNNGGTYSNGDATWIENVSQTRHFLQVPILAKFSIHSNNSTKFFFEIGSYIGYCIKNHIDSNPYYLTMPSSGWVEGYPGVGESAEGGSNQFLYQHARNFDWGMTSAVGIENRRWTVKLQYEMSLGKESKNDNIGVNYNSLTLSVGYKLNVKQ”, the “soluble on expression in E. coli” value was “not soluble”.

As for “MFLKSLIFVLTFQFSNGNPVEQVHLSLSGKADEMVVTWLTHDPRKFTC”, the “soluble on expression in E. coli” value is listed as “not soluble”.

As for “DHIPGTDIDLTVPYAAEGPGPTVNTLGDVDGKPVVNVSGAEIHKTTGNLNMTTVSVRTHLTLGQALGRWLIAHDTLVPIEQIFPQGKTPEEVDEVNKAAFSTSEASATIAAMNQLHKPVDT”, the “soluble on expression in E. coli” value was “not soluble”.

“MDFHRALSALFTNQAAVQPLLGSLGFPFNDGTSILTTALAAQSGGKKLDTPLGILPFDSLPTTNLLTPTKKIKLEDELCASPVSSRSSTVSSSHFSSPQRSPSRKMSVPIPEEKKDSAYFERRRKNNDAAKRSRDARRQKEEQIASKAHALERENMQLRGKVSSLEQEAAQLRFLLFSKISPANSEVSCESNDSTETNDSNDSKSDSTIEV”: the “soluble on expression in E. coli” value was “not soluble”.

“MEANKKAKPSYGDVISNLPNDLLCRILSYLSTKEAALTSILSKRWSNLLLSIPILDFDDSVLLKPQKGQRKNVFFKAFVDRLLSQRVETSSHVQRVSLKCRQGGVEPDCVIKWILTTVRDLGVLDLSLCIDFGIFHLPFNVFRSKTLVKLRIGTMIRLSQFPSDVVSPTLNSLVLDLVEFRDGDKVEFRQILLAFPSLQSLRVHESNKWKFWNGSASSRTLKSLVYRSDDDSSAPKPCVSFDTPSLVYLDYSDMVADKYENLKFDSLVEARLDLHLTAFQIMRKPNNIGIVSGDVTTLFKGIRNVKILCLSPDALEALYYRGEKIPMFNNLITLSLGSDKPHGSPFIFWKLLPSLLNNSLKLETLIIKGLVHYVAEGWEGLSPMTPMSRLCFSWDTVSDSLSSSAMKVLEISGYKGTWQELNQMKRFLGNLSRLEVVRVYHKAMDDKERINVMFDLFLLPKVSSECDIQVMKETA”: the “soluble on expression in E. coli” value is recorded as “soluble”.

For the sequence “IKTTKALQLNDEQQVAVDQITQAVDQAATTTFLLEGVTGSGKTEVYLQSMAAALVQGKTALMLVPEISLTPQMVQRVKGRFGKAVAVLHSGLSSGEKYDEWRRIQRGEAQVVVGARSAVFAPLKNLGLIVMDEEHESTYKQDDAPRYHARQVALWRSRYHNCPVVLGSATPSLETRARAEKG”, the “soluble on expression in E. coli” value is “not soluble”.

For “GDDNEIEIPKAPVLEKAQLALAIKSEEGAVTKTGETTPTDADVNTLTVGVFGVDGWSVIYTKDATPNSDGTKDVGPQEVYAGEAHVVVVANAAPVIQTELAKAKDITDFIETTINLSDETLTKGLTMSSKVLDVTLVANTTNYIGYDDEVGDITVKDISGKEVYGAGPVPLVRDVASIALAGADIGNPENANYESKSFVLKEVFIASAKGVSSVASTEEWGTIEKDFFGDTHFGYLDYKVGLLFLTSPNNIDEGSYKKGLQTKYDALAKKHVENDPALNHEFYVYENTKGEVKSGESNVNEAYANHTLLIVKGDYTYLPQGAKESITKENCYYAIPVGEEVTIDGTEKRSKFYVQRNYKYEISLTIIGPGSEIPYDPMISTNVSASVKVEPWNVKTIHEEVE”, the “soluble on expression in E. coli” value is given as “soluble”.

Take “MGSDKIHHHHHHMDPRHRRGARLRHHQRDVARGGSVPARRQAHRRVARGLGEPVFVTHLVFFCGHAGTGKTTLAKRLIGPLMRATGEAFCLLDKDTLYGRYSSAAMGALTSDPNDRDSPLYLKHLRDPEYQGLLDTARENLALGIGALVVGPLSREVRDRRILDRAWLGIGPEIALTVVWVHTAEDVAHQRIVARGNPNDAYKLAHWDEYRQRRFVPTGHECDGIVMFDNTAPSDADIDALLYRIVPPAPQATMVPPLPA”: the “soluble on expression in E. coli” value is reported as “not soluble”.

As for “MSLANIQEIAKLAGVSSATVSRVINNRDYVSEETRKRVQTIIDKLDYVPNINAVSLKKGATKLIGMVIPSFTDSLNVFLKSFTMMAQEHGYNVTLFMTRIDPDKELEALEMLRQKQIDALVLVIRSNDWKTIEHYTKYGPIVTWQRVESEKIPSVFMNQYDGYTLALEHLYAKGYRKFVNVYGNTTGLNTQSRMLAFKDFCARYELDPHEFRQFYGQGSRQDGEKIAHWWSETEHKPDAFLTPNDYFAAGLLTEARRLGYSVPEDFAICGFDNMEVAHLLDITTIHYPVNLQAENAFTLIMNQLFGSNLPLLDLDFHLVERKTTEGHHHHHH”, the “soluble on expression in E. coli” value was “soluble”.

Regarding “MQGEDRWADIREMNDRLIACERCPRLVEFRKAVVGRDKRFRGETYWARPVPGYGDINGRLLIVGLAPAASGGNRTGRVFTGDKSSDFLVSCLHEAGITNQPTSERRDDGLIYYDAYITAAVKCVPPDNKPLPEEIENCSVYLRSEIGFMKNLKVILVLGQIALQAVVRLIADPAEPRSRYRFVHGAVYSMNGIRVVCSYHPSPRNVNTGKLKRSDFVDLLKKVKEMALE”, the “soluble on expression in E. coli” value is “not soluble”.

Regarding “MGSDKIHHHHHHMSNTQKVPVTILTGFLGSGKTTLLNRILSEEHGKKIAVIENEYGEVGIDQGLVINADEEVFEMSNGCICCTVRGDLIRVLGNLMKRRDKFDYVLVETTGLADPGPVAQTFFMDDEIREEFSLDGIVTLVDAAHIEQQLGRSDESSEQVAFADVLVLNKTDLVSDESLDNLESRLRDMNRMARVIRSKQADVSIDTVLNLSAFDLDQVLQRRPTFLEPEYPFEWTGVFSLEKGRYELTLEEGPDPTMSLVQLLDQGKDETALNTGAESCVRLYAEQEQLMNPGDLVPVGKHVNLQLQSEGTKSFFIDVDKARDIGLFTQHTAEEFNMKLTKVNTPSTDEIDNDQNISTISPIAERVWVAEHEHDDEVGSFAIEREGDVDPEKLNRWLSRLLSEKGVDIFRTKGFISYAGESKRIVFQGVHMLFTAQPDKEWGNEPRRNQLVFIGRNLDEAEMIKEFDKCLV”, the “soluble on expression in E. coli” value is listed as “not soluble”.
